Test results taken from US6703364B2, “Thrombin generation inhibitors” (Cleveland State University, priority 2001, dated 2004).
pIC50: −log10 of the molar value. “Also recorded” adds a separate entry of the source. Blank lines part the entries; values can stand above or below the molecule they belong to. Residues, ends and D or L forms follow the SMILES beside them. No end group written: not given here.

Legend:
prothrombinase [1] = target: T1, prothrombinase (Homo sapiens, UniProt P00742); assay: fluorescent prothrombinase assay (DAPA; conversion of prothrombin to α-thrombin); assay type: biochemical; details: for pIC50: fluorescent assay, DAPA fluorescence, read-out: IC50 for inhibition of prothrombinase activity
T1 construct: purchased Haematologic Technologies, Inc
Text: The assay used to obtain the data shown in FIG. 4 is a fluorescent assay that is described in Example 3 of this document. Briefly, the fluorescent assay, in contrast to the visual assay, measures only one reaction of the many necessary for formation of a blood clot. The fluorescent assay measures conversion of prothrombin to a-thrombin as catalyzed by prothrombinase. A fluorescent assay reaction contains prothrombin, factor Xa, factor Va and a preparation of phospholipid vesicles, which facilitate assembly of the aforementioned components into a functioning prothrombinase enzyme.
Each fluorescent assay also contains a fluorescent compound called dansylarginine-N-(3-ethyl-1,5-pentanediyl)amide (or DAPA for short). DAPA specifically binds to α-thrombin, the product of the prothrombinase reaction. Binding of DAPA by α-thrombin increases the fluorescence intensity of DAPA. In the case where no peptide inhibitor of prothrombinase is present in the reaction, high levels of α-thrombin are produced in the reaction, and DAPA fluorescence is high. When a peptide inhibitor of prothrombinase is present, little α-thrombin is produced in the reaction, and DAPA fluorescence is low. Therefore, by measuring DAPA fluorescence, the inhibitory ability of each peptide is determined.
The identity of reactions containing each peptide, as well as the reactions containing no peptide (labeled “Xa/Va”) or no peptide and no factor Va (labeled “Xa”) is shown on the x-axis of FIG. 4.
Activities of prothrombinase, as measured by DAPA fluorescence, are shown on the y-axis of FIG. 4. […] DAPA fluorescence in the absence of both peptide and factor Va (the bar labeled “APXa” in FIG. 4) is 9% of the APXa/Va activity, and is background fluorescence.
The fluorescence assay specifically measured the conversion of prothrombin to α-thrombin, one essential reaction of the many required for blood clotting (see FIG. 1). […]
The fluorescent properties of DAPA were contributed by the dansyl moiety. When bound to α-thrombin, the fluorescence intensity and lifetime of the dansyl moiety were increased three-fold. Therefore, in this assay, when prothrombinase activity was uninhibited, α-thrombin was produced (see FIG. 1) and DAPA fluorescence was high. When prothrombinase activity was inhibited, as in the presence of peptide prothrombinase inhibitors, α-thrombin was not produced and DAPA fluorescence was low.
In a typical assay, the final concentrations of reagents were as follows: prothrombin, 1.4 μM; factor Xa, 10 nM; factor Va, 1 nM; phospholipid vesicles, 20 μM; DAPA, 3 μM; peptide, 100 μM. […] After centrifugation to isolate the vesicles, the concentration of the vesicles was determined by phosphorus assay (Gomori, 1942, J Lab Clin Med, 27:955-60). […]

prothrombinase [2] = target: T1, prothrombinase; assay: visual blood clotting assay (factor V-depleted plasma, thromboplastin, factor Va); assay type: biochemical; details: increasing peptide concentrations, as high as 250 μM
Text: FIG. 3 is a graph showing inhibition of prothrombinase activity by the 42 amino acid peptide NR42, encompassing amino acids 307-348 of the human factor Va heavy chain (SEQ ID NO. 2). The assay used to obtain the data shown in FIG. 3 is a visual blood clotting assay that is described in detail in Example 2 of this document.
Briefly, in the visual blood clotting assay, reactions are set up that contain all components of the blood necessary to form a blood clot and the time required for formation of a visual blood clot is recorded. To test inhibitory activity of the NR42 peptide, different concentrations of NR42 are added to a series of such reactions. […] The time required for an observable blood clot to form in the absence of NR42 peptide (0 μM peptide on the x-axis) is designated as 100% prothrombinase activity, as shown on the y-axis of FIG. 3. Inhibition of blood clotting by […] results in longer clotting times. Longer clotting times are shown on the y-axis of the graph as decreased prothrombinase activity. […]
Factor Va was purchased or, alternatively was produced by treatment of 50 nM of purified factor V (Haematologic Technologies, Inc.) with 1 nM α-thrombin for 10 min followed by the addition of 2 nM hirudin. […] This time was arbitrarily determined to be 100% activity. […]

[3] = target: prothrombinase (factor Xa plus factor Va) (human) (UniProt P00742)
[4] = target: factor Xa (Homo sapiens (Human)) (UniProt P00742)
[5] = series of peptide concentrations

T1 sequence (P00742 41-179 limits assumed): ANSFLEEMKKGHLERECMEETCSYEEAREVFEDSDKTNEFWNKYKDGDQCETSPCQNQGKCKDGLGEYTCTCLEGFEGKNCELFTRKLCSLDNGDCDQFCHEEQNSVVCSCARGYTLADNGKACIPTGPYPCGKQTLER
T1 sequence (P00742 235-488 limits assumed): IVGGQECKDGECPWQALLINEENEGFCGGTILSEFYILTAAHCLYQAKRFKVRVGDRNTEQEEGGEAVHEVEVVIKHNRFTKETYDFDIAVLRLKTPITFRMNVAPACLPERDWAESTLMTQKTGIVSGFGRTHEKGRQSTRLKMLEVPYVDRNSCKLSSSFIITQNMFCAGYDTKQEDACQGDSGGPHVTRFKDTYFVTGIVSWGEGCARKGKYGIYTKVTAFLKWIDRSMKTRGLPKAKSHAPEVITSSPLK

Molecule: DR13: control peptide encompassing amino acids 697 to 709 of the factor Va heavy chain (DADSDYQDELALI)
effect on blood clotting time and prothrombinase activity (in words) (prothrombinase [2]): do not significantly affect blood clotting time and prothrombinase activity
effect on blood clotting time and prothrombinase activity (in words) (prothrombinase [2]; listed as D13R): did not inhibit prothrombinase activity

Molecule: EYFAE (peptide)
IC50, inhibition of prothrombinase, fluorescent assay (DAPA) [3]: 10 to 15 µM

Molecule: P15H: 15 amino acid peptide encompassing amino acids 337-351 of human factor Va; used as negative control (PIIPANMDKKYRSLH) [Peptide P15H]
inhibition of prothrombinase activity (in words) (prothrombinase [1]; series of peptide concentrations, up to approximately 500 μM): did not inhibit prothrombinase; also recorded: does not inhibit prothrombinase activity

Molecule: factor Va (from UniProt P12259)
prothrombinase activity by DAPA fluorescence, factor Xa with and without factor Va (% of the Xa/Va activity) [4]: 9

More lines, now with the values ahead:

pIC50 (prothrombinase [1]; [5]): ~5.30
Molecule: CC[C@H](C)[C@H](NC(=O)[C@H](Cc1ccccc1)NC(=O)[C@H](Cc1ccc(O)cc1)NC(=O)[C@H](CCC(=O)O)NC(=O)[C@@H](N)Cc1c[nH]c2ccccc12)C(=O)N[C@@H](C)C(=O)N[C@@H](C)C(=O)N[C@@H](CCC(=O)O)C(=O)N[C@@H](CCC(=O)O)C(=O)N[C@H](C(=O)O)C(C)C [AP4, Trp Glu Tyr Phe Ile Ala Ala Glu Glu Val] (H-WEYFIAAEEV-OH)

pIC50 (prothrombinase [1]; [5]): ~4.52
Molecule: CC[C@H](C)[C@H](N)C(=O)N[C@@H](Cc1c[nH]c2ccccc12)C(=O)N[C@@H](CC(=O)O)C(=O)N[C@@H](Cc1ccc(O)cc1)C(=O)N[C@@H](C)C(=O)N1CCC[C@H]1C(=O)N[C@H](C(=O)N[C@H](C(=O)N1CCC[C@H]1C(=O)N[C@@H](C)C(=O)O)[C@@H](C)CC)C(C)C [AP6, Ile Trp Asp Tyr Ala Pro Val Ile Pro Ala] (H-IWDYAPVIPA-OH)

prothrombinase activity relative to the no peptide reaction (prothrombinase [1]; 100 μM peptide, no peptide reaction (Xa/Va) = 100%, remaining activity): approximately 80%
Molecule: NMDKKYRSQH [AP8, 10 amino acid peptide adjacent to and overlapping AP9]
